Assay results taken from patent publication US20110243926A1 (published 2011).

T1: soluble P-selectin (UniProt P16109 42-771, limits assumed)
T1 sequence (looked up): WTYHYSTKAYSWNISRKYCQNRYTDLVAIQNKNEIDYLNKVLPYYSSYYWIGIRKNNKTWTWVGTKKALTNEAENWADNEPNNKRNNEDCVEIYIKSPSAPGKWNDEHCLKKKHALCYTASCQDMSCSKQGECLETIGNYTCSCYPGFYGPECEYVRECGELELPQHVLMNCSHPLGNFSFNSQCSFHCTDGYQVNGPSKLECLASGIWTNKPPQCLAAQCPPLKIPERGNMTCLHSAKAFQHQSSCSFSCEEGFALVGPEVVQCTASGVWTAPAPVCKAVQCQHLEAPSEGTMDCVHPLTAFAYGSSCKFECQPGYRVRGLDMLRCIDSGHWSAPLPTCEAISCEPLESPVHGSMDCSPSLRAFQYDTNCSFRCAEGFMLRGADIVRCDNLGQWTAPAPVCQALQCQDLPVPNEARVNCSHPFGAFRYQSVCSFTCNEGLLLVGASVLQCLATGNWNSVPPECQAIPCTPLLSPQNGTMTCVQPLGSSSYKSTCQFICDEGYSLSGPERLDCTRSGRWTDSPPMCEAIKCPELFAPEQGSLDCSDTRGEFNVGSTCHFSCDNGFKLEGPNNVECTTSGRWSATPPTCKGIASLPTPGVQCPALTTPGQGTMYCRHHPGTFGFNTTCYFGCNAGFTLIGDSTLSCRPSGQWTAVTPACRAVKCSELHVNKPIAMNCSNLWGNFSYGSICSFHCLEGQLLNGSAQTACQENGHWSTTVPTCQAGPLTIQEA

T2: soluble E-selectin (control protein) (UniProt P16581 22-556, limits assumed)
T2 sequence (looked up): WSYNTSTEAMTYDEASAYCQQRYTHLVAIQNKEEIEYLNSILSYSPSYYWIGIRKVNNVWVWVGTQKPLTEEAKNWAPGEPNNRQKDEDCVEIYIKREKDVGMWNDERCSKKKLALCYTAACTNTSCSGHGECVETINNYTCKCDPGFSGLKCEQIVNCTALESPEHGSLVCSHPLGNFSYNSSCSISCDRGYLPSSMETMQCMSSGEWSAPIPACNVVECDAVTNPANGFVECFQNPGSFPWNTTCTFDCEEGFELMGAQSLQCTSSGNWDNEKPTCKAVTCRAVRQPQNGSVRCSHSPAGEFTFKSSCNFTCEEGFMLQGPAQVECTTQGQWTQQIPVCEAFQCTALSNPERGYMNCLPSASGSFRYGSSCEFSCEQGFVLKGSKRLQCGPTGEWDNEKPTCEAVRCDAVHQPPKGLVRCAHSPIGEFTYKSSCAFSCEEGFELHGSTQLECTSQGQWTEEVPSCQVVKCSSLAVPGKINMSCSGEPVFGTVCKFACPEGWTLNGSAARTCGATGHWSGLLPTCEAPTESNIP

B1: humanized G1 antibody design labeled "aggressive" (G1aggr) (antibody, V domains shown)
VH: QVQLVQSGAEVKKPGASVKVSCKVSGYTFTSYDINWVRQAPGKGLEWMGWIYPGDGSIKYNEKFKGRVTMTVDKSTDTAYMELSSLRSEDTAVYYCARRGEYGNYEGAMDYWGQGTLVTVSS
VL: DIQMTQSPSSLSASVGDRVTITCKASQSVDYDGHSYMNWYQQKPGKAPKLLIYAASNLESGVPSRFSGSGSGTDFTLTISSLQPEDFATYYCQQSDENPLTFGGGTKVEIK
notes: also called humanized G1aggr; humanized antibody G1aggr
B2: G1 mouse parental monoclonal antibody (antibody, V domains shown)
VH: QVQLQQSGPELVKPGALVKISCKASGYTFTSYDINWVKQRPGQGLEWIGWIYPGDGSIKYNEKFKGKATLTVDKSSSTAYMQVSSLTSENSAVYFCARRGEYGNYEGAMDYWGQGTTVTVSS
VL: DIVLTQDPASLAVSLGQRATISCKASQSVDYDGHSYMNWYQQKPGQPPKLLIYAASNLESGIPARFSGSGSGTDFTLNIHPVEEEDAATYYCQQSDENPLTFGTGTKLELK
notes: Mouse monoclonal antibody from a hybridoma; also called murine mAb G1; parental G1 murine antibody

Assays:
soluble P-selectin = molecular target: T1, soluble P-selectin; experiment: SPR (Biacore 3000, 25 C), soluble P-selectin coupled to CM-5 chip, antibody as analyte, bivalent analyte model
Experimental: (§1) All experiments were performed on a Biacore 3000, at 25° C., using 20 mM MOPS, pH 7.5, 150 mM NaCl, 1.5 mM CaCl₂ and 0.005% Tween-20 as running buffer. Low densities of soluble P-selectin or soluble E-selectin (control protein) were covalently coupled on two different surfaces of a CM-5 chip according to the manufacturer's instructions. The coating density was selected with the aim of achieving a maximum binding response of 100-200 RUs.
(§2) Solutions containing G1aggr and the G1 mouse parental monoclonal antibody were diluted and injected onto the CM-5 chip at a flow rate of 30 μl/min for 4 minutes, followed by 3 min to allow for dissociation, at which time the bound antibody was eluted with a 10 μl injection of 10 mM Acetate pH 4.5, 100 mM NaCl at a flow rate of 10 μl/min. A series of concentrations of both antibodies were injected over the soluble P-selectin and the soluble E-selectin surfaces until saturating binding was observed.
The data were analyzed using the Biaevaluation software v 4.1. Sensorgrams from the different cycles were overlaid and the data for all curves of one antibody were simultaneously fitted to a Bivalent analyte model (see FIG. 5). The equilibrium affinity was calculated from the on-rates and off-rates obtained from this analysis.

[1] = molecular target: T2, soluble E-selectin (control protein); experiment: SPR (Biacore 3000), soluble E-selectin coupled to CM-5 chip, antibody injected
Experimental: as §1, §2
There was no binding observed for either antibody to E-selectin.

Binder	Kd (soluble P-selectin)	binding result [1]
B1	31.1 nM	no binding
B2	24.4 nM	no binding
